According to article PMC7614494:

Key:
[1] = target: Mouse saposin A (mouse); assay: crystal structure; SapA-PC preparation (100 mM citrate pH 4.0, 150 mM NaCl) mixed with acid ceramidase; sitting drops at 293 K, 23.25% PEG 3350, 0.1 M Bis-Tris pH 5.6; only SapA found in the crystal; 3.17 Å
[2] = target: Mouse saposin A (mouse); assay: SEC-MALS; SapA after incubation with DDM-solubilised phosphatidylcholine (PC:SapA 30:1); Superdex 200 Increase 10/300 GL, 100 mM citrate pH 4.0, 150 mM NaCl, room temperature; protein conjugate analysis of three regions of a heterogeneous peak

stoichiometry N [1]: 4 | stoichiometry N [2]: 3 to 4
Substance: Mouse saposin A (natural protein)
